Reference: PMC7954794, “Protein context shapes the specificity of SH3 domain-mediated interactions in vivo” (Nature Communications, 2021)

System: Sla1 PPIs
Assay: DHFR-PCA of Sla1 SH3-swapped, -shuffled or -deleted baits (Fig. 2E, 4B, 4D, S5A)
Assay type: cell-based, Saccharomyces cerevisiae
Source text: The stuffing of YSC84 SH3 rendered the strain sterile and was therefore not used for this study as the assays require crosses. For genes containing two SH3s (BZZ1 and BEM1), a combination of this first stuffer with a second one ([…]) coding for a highly similar linker ([…]) was used, which allowed targeting each SH3 position independently. The two N-terminal domains of SLA1, which are separated by six nucleotides, were stuffed by a single stuffer. Cells containing pCAS were selected via the G418 resistance cassette from the plasmid on YPD plates (YPD + NAT 100 μg/ml (DHFR F[1,2] selection) + G418 200 µg/mL (Bioshop Canada)). Colonies were randomly selected and grown in YPD media without G418 to allow plasmid loss. The correct insertion of the stuffer was validated by PCR and Sanger sequencing. The SH3-swapped, -shuffled, and -mutated strains were constructed following a second CRISPR–Cas9 editing step with the same procedures. The stuffer sequences were targeted by specific gRNAs (one gRNA per stuffer) and replaced by PCR amplified specific SH3 (with 40 bp homology arms) or libraries of mutated SH3 domains for Deep Mutational Scanning (DMS) with 78 bp flanking homology regions. Validation of the SH3 domain insertions was done as we previously described except for DMS libraries (see below).
The overall DHFR-PCA pipeline is based on Tarassov et al.[43] and the procedures have also been published as a visualized protocol. The screens were performed with robotically manipulated pin tools (BM5-SC1, S&P Robotics Inc.). First, the preys were cherry-picked from 96-well plates to omnitrays in a 384 format on YPD + HPH solid media. Plates were then combined into the 1536 format on YPD + HPH. The array was constituted of 575 preys previously shown to interact physically with at least one SH3-containing protein as reported in BioGRID V3.4.16 along with 40 negative controls. The prey array comprised a border of control strains of two rows and two columns corresponding to the PPI between LSM8-DHFR F[1,2] and CDC39-DHFR F[3]. This double border was used to remove border effects. Preys are present in duplicate at a randomized position in the 1536 array (except for YAL041W which is present four times per array). Baits were crossed with two prey plates, resulting in four independent bait–prey tests for each PPI. Baits were grown in liquid YPD + NAT and then transferred on solid YPD + NAT omnitrays. They were then replicated on YPD + NAT omnitrays in 1536 array format. Mating of DHFR F[1,2] baits with DHFR F[3] preys was done on YPD followed by incubation at 30 °C for 48 h. Two diploid selection steps were performed by replicating the plates on YPD + NAT + HPH and incubating them for 48 h at 30 °C. Pictures were taken at the end of the second diploid selection for quality control. All images were acquired with a EOS Rebel T5i camera (Canon). Finally, the diploid cells were replicated on omnitrays containing solid PCA selection media and incubated for 4 days as a first selection step in a spImager custom robotic platform (S&P Robotics Inc.). Cells were replicated for a second PCA selection step and incubated in the same manner. The last time point of the second PCA selection step was used for the data analysis as in previous studies using this method.
A separate DHFR-PCA screen was performed for the Sla1 SH3 shuffling experiment, with the same analysis as previously described. Three plates had no detectable level of background, which correspond to the second plate of the three Sla1 SH3 WT re-insertion controls. They were attributed the average of the background of the three first plates of the same baits. The threshold was also determined based on the distribution of the PCA scores of all PPIs and corresponds to the top 2.75% of all colonies detected in this experiment. […] Almost all true PPIs are from four replicates (96.2%). […]

B1: WT¦WT¦WT (protein, UniProt P32790 1-1244, looked up)
Actin cytoskeleton-regulatory …: MTVFLGIYRAVYAYEPQTPEELAIQEDDLLYLLQKSDIDDWWTVKKRVIGSDSEEPVGLVPSTYIEEAPVLKKVRAIYDYEQVQNADEELTFHENDVFDVFDDKDADWLLVKSTVSNEFGFIPGNYVEPENGSTSKQEQAPAAAEAPAATPAAAPASAAVLPTNFLPPPQHNDRARMMQSKEDQAPDEDEEGPPPAMPARPTATTETTDATAAAVRSRTRLSYSDNDNDDEEDDYYYNSNSNNVGNHEYNTEYHSWNVTEIEGRKKKKAKLSIGNNKINFIPQKGTPHEWSIDKLVSYDNEKKHMFLEFVDPYRSLELHTGNTTTCEEIMNIIGEYKGASRDPGLREVEMASKSKKRGIVQYDFMAESQDELTIKSGDKVYILDDKKSKDWWMCQLVDSGKSGLVPAQFIEPVRDKKHTESTASGIIKSIKKNFTKSPSRSRSRSRSKSNANASWKDDELQNDVVGSAAGKRSRKSSLSSHKKNSSATKDFPNPKKSRLWVDRSGTFKVDAEFIGCAKGKIHLHKANGVKIAVAADKLSNEDLAYVEKITGFSLEKFKANDGSSSRGTDSRDSERERRRRLKEQEEKERDRRLKERELYELKKARELLDEERSRLQEKELPPIKPPRPTSTTSVPNTTSVPPAESSNNNNSSNKYDWFEFFLNCGVDVSNCQRYTINFDREQLTEDMMPDINNSMLRTLGLREGDIVRVMKHLDKKFGRENIASIPTNATGNMFSQPDGSLNVATSPETSLPQQLLPQTTSPAQTAPSTSAETDDAWTVKPASKSESNLLSKKSEFTGSMQDLLDLQPLEPKKAAASTPEPNLKDLEPVKTGGTTVPAAPVSSAPVSSAPAPLDPFKTGGNNILPLSTGFVMMPMITGGDMLPMQRTGGFVVPQTTFGMQSQVTGGILPVQKTGNGLIPISNTGGAMMPQTTFGAAATVLPLQKTGGGLIPIATTGGAQFPQTSFNVQGQQQLPTGSILPVQKTANGLISANTGVSMPTVQRTGGTMIPQTSFGVSQQLTGGAMMTQPQNTGSAMMPQTSFNAVPQITGGAMMPQTSFNALPQVTGGAMMPLQRTGGALNTFNTGGAMIPQTSFSSQAQNTGGFRPQSQFGLTLQKTGGIAPLNQNQFTGGAMNTLSTGGVLQQQQPQTMNTFNTGGVMQELQMMTTFNTGGAMQQPQMMNTFNTDGIMQQPQMMNTFNTGGAMQQPQQQALQNQPTGFGFGNGPQQSRQANIFNATASNPFGF
- Protein-protein interaction distance between Sla1 baits (distance to bait ABP1¦WT¦WT): 8.25
- Protein-protein interaction distance between Sla1 baits (distance to bait ABP1¦WT¦WT, listed as WT¦WT¦WT*): 10.6959
- Protein-protein interaction distance between Sla1 baits (distance to bait D¦D¦D): 16.1793
- Protein-protein interaction distance between Sla1 baits (distance to bait D¦D¦D, listed as WT¦WT¦WT*): 19.5303
- Protein-protein interaction distance between Sla1 baits (distance to bait D¦D¦SH3-1): 16.1305
- Protein-protein interaction distance between Sla1 baits (distance to bait D¦D¦SH3-1, listed as WT¦WT¦WT*): 19.4574
- Protein-protein interaction distance between Sla1 baits (distance to bait D¦D¦WT): 16.2907
- Protein-protein interaction distance between Sla1 baits (distance to bait D¦D¦WT, listed as WT¦WT¦WT*): 19.6881
- Protein-protein interaction distance between Sla1 baits (distance to bait D¦WT¦D): 11.2982
- Protein-protein interaction distance between Sla1 baits (distance to bait D¦WT¦D, listed as WT¦WT¦WT*): 13.9439
- Protein-protein interaction distance between Sla1 baits (distance to bait D¦WT¦SH3-1): 14.8539
- Protein-protein interaction distance between Sla1 baits (distance to bait D¦WT¦SH3-1, listed as WT¦WT¦WT*): 18.0045
- Protein-protein interaction distance between Sla1 baits (distance to bait D¦WT¦SH3-2): 16.1112
- Protein-protein interaction distance between Sla1 baits (distance to bait D¦WT¦SH3-2, listed as WT¦WT¦WT*): 19.4593
- Protein-protein interaction distance between Sla1 baits (distance to bait D¦WT¦WT): 11.2206
- Protein-protein interaction distance between Sla1 baits (distance to bait D¦WT¦WT, listed as WT¦WT¦WT*): 13.8561
- Protein-protein interaction distance between Sla1 baits (distance to bait SH3-2¦SH3-1¦WT): 14.7068
- Protein-protein interaction distance between Sla1 baits (distance to bait SH3-2¦SH3-1¦WT, listed as WT¦WT¦WT*): 17.8199
- Protein-protein interaction distance between Sla1 baits (distance to bait SH3-2¦WT¦D): 16.5686
- Protein-protein interaction distance between Sla1 baits (distance to bait SH3-2¦WT¦D, listed as WT¦WT¦WT*): 19.9645
- Protein-protein interaction distance between Sla1 baits (distance to bait SH3-2¦WT¦WT): 10.6088
- Protein-protein interaction distance between Sla1 baits (distance to bait SH3-2¦WT¦WT, listed as WT¦WT¦WT*): 13.1093
- Protein-protein interaction distance between Sla1 baits (distance to bait SH3-3¦SH3-1¦D): 6.071
- Protein-protein interaction distance between Sla1 baits (distance to bait SH3-3¦SH3-1¦D, listed as WT¦WT¦WT*): 7.132
- Protein-protein interaction distance between Sla1 baits (distance to bait SH3-3¦SH3-1¦SH3-2): 11.1253
- Protein-protein interaction distance between Sla1 baits (distance to bait SH3-3¦SH3-1¦SH3-2, listed as WT¦WT¦WT*): 13.2567
- Protein-protein interaction distance between Sla1 baits (distance to bait SH3-3¦WT¦D): 6.23
- Protein-protein interaction distance between Sla1 baits (distance to bait SH3-3¦WT¦D, listed as WT¦WT¦WT*): 7.588
- Protein-protein interaction distance between Sla1 baits (distance to bait SH3-3¦WT¦SH3-1): 7.451
- Protein-protein interaction distance between Sla1 baits (distance to bait SH3-3¦WT¦SH3-1, listed as WT¦WT¦WT*): 7.53
- Protein-protein interaction distance between Sla1 baits (distance to bait SH3-3¦WT¦WT): 5.911
- Protein-protein interaction distance between Sla1 baits (distance to bait SH3-3¦WT¦WT, listed as WT¦WT¦WT*): 7.517
- Protein-protein interaction distance between Sla1 baits (distance to bait WT*¦WT¦WT): 6.431
- Protein-protein interaction distance between Sla1 baits (distance to bait WT*¦WT¦WT, listed as WT¦WT¦WT*): 3.21
- Protein-protein interaction distance between Sla1 baits (distance to bait WT¦ABP1¦WT): 7.491
- Protein-protein interaction distance between Sla1 baits (distance to bait WT¦ABP1¦WT, listed as WT¦WT¦WT*): 10.0527
- Protein-protein interaction distance between Sla1 baits (distance to bait WT¦D¦D): 10.9978
- Protein-protein interaction distance between Sla1 baits (distance to bait WT¦D¦D, listed as WT¦WT¦WT*): 13.667
- Protein-protein interaction distance between Sla1 baits (distance to bait WT¦D¦SH3-2): 12.0771
- Protein-protein interaction distance between Sla1 baits (distance to bait WT¦D¦SH3-2, listed as WT¦WT¦WT*): 14.877
- Protein-protein interaction distance between Sla1 baits (distance to bait WT¦D¦WT): 11.0221
- Protein-protein interaction distance between Sla1 baits (distance to bait WT¦D¦WT, listed as WT¦WT¦WT*): 13.7143
- Protein-protein interaction distance between Sla1 baits (distance to bait WT¦SH3-1¦D): 6.357
- Protein-protein interaction distance between Sla1 baits (distance to bait WT¦SH3-1¦D, listed as WT¦WT¦WT*): 7.675
- Protein-protein interaction distance between Sla1 baits (distance to bait WT¦SH3-1¦WT): 5.709
- Protein-protein interaction distance between Sla1 baits (distance to bait WT¦SH3-1¦WT, listed as WT¦WT¦WT*): 7.171
- Protein-protein interaction distance between Sla1 baits (distance to bait WT¦SH3-3¦D): 9.961
- Protein-protein interaction distance between Sla1 baits (distance to bait WT¦SH3-3¦D, listed as WT¦WT¦WT*): 12.4074
- Protein-protein interaction distance between Sla1 baits (distance to bait WT¦SH3-3¦SH3-2): 12.7354
- Protein-protein interaction distance between Sla1 baits (distance to bait WT¦SH3-3¦SH3-2, listed as WT¦WT¦WT*): 15.4687
- Protein-protein interaction distance between Sla1 baits (distance to bait WT¦SH3-3¦WT): 10.0693
- Protein-protein interaction distance between Sla1 baits (distance to bait WT¦SH3-3¦WT, listed as WT¦WT¦WT*): 12.5958
- Protein-protein interaction distance between Sla1 baits (distance to bait WT¦WT*¦WT): 6.129
- Protein-protein interaction distance between Sla1 baits (distance to bait WT¦WT*¦WT, listed as WT¦WT¦WT*): 3.181
- Protein-protein interaction distance between Sla1 baits (distance to bait WT¦WT¦ABP1): 9
- Protein-protein interaction distance between Sla1 baits (distance to bait WT¦WT¦ABP1, listed as WT¦WT¦WT*): 10.6328
- Protein-protein interaction distance between Sla1 baits (distance to bait WT¦WT¦D): 5.067
- Protein-protein interaction distance between Sla1 baits (distance to bait WT¦WT¦D, listed as WT¦WT¦WT*): 7.2651
- Protein-protein interaction distance between Sla1 baits (distance to bait WT¦WT¦SH3-1): 4.945
- Protein-protein interaction distance between Sla1 baits (distance to bait WT¦WT¦SH3-1, listed as WT¦WT¦WT*): 5.794
- Protein-protein interaction distance between Sla1 baits (distance to bait WT¦WT¦SH3-2): 5.746
- Protein-protein interaction distance between Sla1 baits (distance to bait WT¦WT¦SH3-2, listed as WT¦WT¦WT*): 6.816
- Protein-protein interaction distance between Sla1 baits (distance to bait WT¦WT¦WT): 0
- Protein-protein interaction distance between Sla1 baits (distance to bait WT¦WT¦WT*): 6.956
- Protein-protein interaction distance between Sla1 baits (distance to bait WT¦WT¦WT*, listed as WT¦WT¦WT*): 0
- Protein-protein interaction distance between Sla1 baits (distance to bait WT¦WT¦WT, listed as WT¦WT¦WT*): 6.956
